Source: PMC12872393, “NCOA4 initiates ferritinophagy by avidly binding GATE16 using two short linear interaction motifs” (Life Science Alliance, 2026)

Key:
lysosomes (LAMP1) = assay: Immunofluorescence colocalization of GFP-NCOA4^383−522 with lysosomes (LAMP1); type: cell-based; settings: GFP-fused constructs in NCOA4Δ HeLa cells, 50 μM DFO 24 h; anti-GFP and anti-LAMP1; area of overlap per nucleus and Manders' coefficient
Protocol: For colocalization assays, NCOA4^383−522 cell lines were seeded on glass coverslips in a 12-well cell culture plate in DMEM as above. After 24 h, media were aspirated and replaced with DMEM supplemented with 50 μM DFO, and cells were incubated for an additional 24 h. Cells were then fixed with 4% paraformaldehyde in PBS (150 mM NaCl, 2.7 mM KCl, 10 mM Na2HPO4, 1.8 mM KH2PO4, pH 8.0) for 15 min at RT, quenched with 100 mM glycine in PBS for 10 min, and washed three times with PBS. Cells were next permeabilized with 0.5% Triton X-100 in PBS for 10 min, washed once with PBS, and blocked for 30 min in 2% BSA in PBS. Slides were next incubated in anti-GFP mouse antibody (sc-9996; Santa Cruz) diluted 1:200, anti-LAMP1 rabbit antibody (9091T; Cell Signaling) diluted 1:200, and Hoechst stain (H3570; Invitrogen) diluted 1:1,000, in 2% BSA in PBS for 1 h. […]
All image analysis was conducted in FIJI ([Schindelin et al, 2012]). […] The overlapping regions were then measured, and the area per nucleus was recorded. […] For all images, threshold values were manually chosen for the pink and green channels, and Manders’ value, which calculates the fraction of the pink signal that overlaps green signal, was recorded.

[1] = system: ferritin heavy chain (FTH1); assay: Western blot assay of ferritin degradation (ferritinophagy) in HeLa cell lines; type: cell-based; settings: EGFP-fused constructs stably integrated in NCOA4Δ HeLa cells; 40 μM FAC 24 h then 50 μM DFO 24 h; quantitative Western blot FTH1/tubulin, triplicate
Description: Stably integrated NCOA4^383−522 cell lines were generated via retroviral transfection of the relevant NCOA4^383−522 construct in a CMV-enhancer–bearing pMRX plasmid (84573; Addgene) into NCOA4Δ HeLa cells (a gift from Prof. M. Poli, University of Brescia, Italy) ([Gryzik et al, 2021]). In this pMRX plasmid, EGFP was fused to the N terminus of NCOA4^383−522 and its mutants with a 13-residue GS linker. HeLa cells were transfected and selected as described previously ([Sena-Esteves & Gao, 2018]).
After 24-h, all media were aspirated and replaced with either DMEM or DMEM supplemented with 40 μM ferric ammonium citrate (FAC). After an additional 24 h, all media were aspirated and replaced with either DMEM or DMEM supplemented with 50 μM deferoxamine (DFO). After an additional 24-h incubation, cells were trypsinized (200 μl, 5 min, 37°C), pelleted via centrifugation at 100g for 1 min, resuspended in Dulbecco’s PBS (D8537; Sigma-Aldrich), and pelleted as above before undergoing flash freezing in liquid nitrogen and storage at −80°C.
Frozen cell pellets were resuspended in 100 μl 4X Laemmli buffer with Halt protease and phosphatase inhibitor (78440; Thermo Fisher Scientific) and lysed with a 29-gauge syringe. […] Ferritin levels were then measured by densitometry in FIJI ([Schindelin et al, 2012]) and normalized to tubulin intensity measured as above.

B1: NCOA4^383-522: NCOA4 fragment of residues 383–522; biotinylated AviTag-His6-NCOA4-MBP in vitro, EGFP fusion in cells (protein)
chain: SMVTEDWLVQNHQDPCKVEEVCRANEPCTSFAECVCDENCEKEALYKWLLKKEGKDKNGMPVEPKPEPEKHKDSLNMWLCPRKEVIEQTKAPKAMTPSRIADSFQVIKNSPLSEWLIRPPYKEGSPKEVPGTEDRAGKQK
modifications: biotin on the AviTag (BirA co-expressed); left off: AviTag, N-terminal, kept | His6, N-terminal, kept | MBP, C-terminal, kept
notes: NCOA4 fragment of residues 383–522; biotinylated AviTag-His6-NCOA4-MBP in vitro, EGFP fusion in cells
For B1, the “NCOA4:lysosome colocalization (in words)” value (lysosomes (LAMP1)) was “significant colocalization” and the “ferritin degradation upon iron chelation with DFO (in words)” value [1] was “ferritin degradation was robust”.
